# Assay results published in US20250304644A1, “PEPTIDES TRIPLE AGONISTS OF GIP, GLP-1 AND GLP-2” (BAINAN BIOTECH APS, priority 2021, published 2025).
# *1 amine or outer side, *2 acyl side, *3 side chain or, on linkers, in order; H or OH if unused. Where no end group is shown, it is not given here. Side-chain parts run from the residue outwards. [ ]: non-standard residue; d: D form. The star is where a group is joined. C18 diacid = O=C(O)CCCCCCCCCCCCCCCCC(=O)*; γGlu = O=C(O)[C@H](CCC(=O)[*:2])N[*:1]; AEEA = NCCOCCOCC(=O)O; Aib = CC(C)(N)C(=O)O
# T1: Human N-terminally SNAP-tagged GIPR (human, UniProt P48546 22-466, SNAP tag labeled with Tag-Lite SNAP-Lumi4-Tb)
# T1 sequence (looked up): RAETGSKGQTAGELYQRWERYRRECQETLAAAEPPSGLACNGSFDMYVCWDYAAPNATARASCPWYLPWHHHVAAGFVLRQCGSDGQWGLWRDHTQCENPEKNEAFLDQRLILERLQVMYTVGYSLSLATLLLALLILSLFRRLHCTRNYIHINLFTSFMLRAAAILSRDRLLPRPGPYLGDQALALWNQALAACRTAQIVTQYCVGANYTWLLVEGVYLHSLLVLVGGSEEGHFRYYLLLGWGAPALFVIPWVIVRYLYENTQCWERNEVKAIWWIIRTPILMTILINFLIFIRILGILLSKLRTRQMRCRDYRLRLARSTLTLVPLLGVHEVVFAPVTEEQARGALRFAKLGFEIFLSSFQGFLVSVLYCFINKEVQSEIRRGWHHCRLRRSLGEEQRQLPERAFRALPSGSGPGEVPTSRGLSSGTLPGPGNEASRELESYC
# T2: human SNAP-tagged GLP-2R (human, UniProt O95838 1-553, SNAP tag labeled with Tag-Lite SNAP-Lumi4-Tb)
# T2 sequence (looked up): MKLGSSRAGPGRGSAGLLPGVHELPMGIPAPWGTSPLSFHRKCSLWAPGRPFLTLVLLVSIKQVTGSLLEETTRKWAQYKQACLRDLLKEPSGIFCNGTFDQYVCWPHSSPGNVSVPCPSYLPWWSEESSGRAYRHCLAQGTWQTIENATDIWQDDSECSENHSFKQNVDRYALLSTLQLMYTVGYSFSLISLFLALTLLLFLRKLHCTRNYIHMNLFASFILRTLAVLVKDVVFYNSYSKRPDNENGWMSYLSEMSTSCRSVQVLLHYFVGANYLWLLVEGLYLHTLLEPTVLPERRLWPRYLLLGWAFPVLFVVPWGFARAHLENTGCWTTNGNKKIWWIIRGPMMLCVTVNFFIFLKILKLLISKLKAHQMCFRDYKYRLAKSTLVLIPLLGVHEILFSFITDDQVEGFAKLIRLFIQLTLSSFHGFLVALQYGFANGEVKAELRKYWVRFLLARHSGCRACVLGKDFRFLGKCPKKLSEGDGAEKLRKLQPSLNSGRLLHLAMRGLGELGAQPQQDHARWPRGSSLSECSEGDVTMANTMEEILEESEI
# T3: human GLP-2R (glucagon-like peptide-2 receptor) (human, UniProt O95838 1-553)
# T3 sequence (looked up): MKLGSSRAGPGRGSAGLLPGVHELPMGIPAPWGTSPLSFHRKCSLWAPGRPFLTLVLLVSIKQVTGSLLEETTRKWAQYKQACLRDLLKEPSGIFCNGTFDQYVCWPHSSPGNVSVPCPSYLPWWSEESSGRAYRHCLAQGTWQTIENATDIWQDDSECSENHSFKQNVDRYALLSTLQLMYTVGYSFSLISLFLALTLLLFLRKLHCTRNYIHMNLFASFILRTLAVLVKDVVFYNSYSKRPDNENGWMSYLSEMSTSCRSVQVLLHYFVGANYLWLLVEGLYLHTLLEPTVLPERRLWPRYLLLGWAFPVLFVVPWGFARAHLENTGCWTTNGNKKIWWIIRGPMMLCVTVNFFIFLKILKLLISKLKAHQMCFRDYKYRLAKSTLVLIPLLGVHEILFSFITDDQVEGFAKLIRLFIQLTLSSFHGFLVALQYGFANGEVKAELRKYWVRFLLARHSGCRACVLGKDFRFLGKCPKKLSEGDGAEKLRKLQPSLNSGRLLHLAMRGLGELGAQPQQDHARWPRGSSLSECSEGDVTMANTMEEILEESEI
# T4: human GIPR (glucose-dependent insulinotropic polypeptide receptor) (human, UniProt P48546 22-466)
# T4 sequence (looked up): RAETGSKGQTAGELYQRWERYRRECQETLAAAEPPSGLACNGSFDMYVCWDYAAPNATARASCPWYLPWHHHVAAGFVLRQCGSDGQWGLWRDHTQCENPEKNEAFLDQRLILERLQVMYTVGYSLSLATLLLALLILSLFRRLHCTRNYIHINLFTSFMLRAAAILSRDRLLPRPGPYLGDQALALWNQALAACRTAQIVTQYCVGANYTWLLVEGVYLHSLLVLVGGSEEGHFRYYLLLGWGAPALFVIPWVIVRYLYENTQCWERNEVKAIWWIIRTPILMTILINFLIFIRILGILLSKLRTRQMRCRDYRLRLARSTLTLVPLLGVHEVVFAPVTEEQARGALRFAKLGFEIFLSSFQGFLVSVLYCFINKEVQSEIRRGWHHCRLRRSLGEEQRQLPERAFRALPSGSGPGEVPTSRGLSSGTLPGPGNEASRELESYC
# Tests used:
# Test in all cases: cell-based or functional assay
# [1] = target: T1, Human N-terminally SNAP-tagged GIPR
# human SNAP-tagged GLP-1R = human SNAP-tagged GLP-1R (human, UniProt P43220 24-463, SNAP tag labeled with Tag-Lite SNAP-Lumi4-Tb)
# human SNAP-tagged GLP-2R = target: T2, human SNAP-tagged GLP-2R
# [2] = target: T3, human GLP-2R (glucagon-like peptide-2 …)
# [3] = target: human GLP-1R (glucagon-like peptide-1 receptor) (human, UniProt P43220 24-463)
# [4] = target: human glucagon receptor (GCGR) (human, UniProt P47871 26-477, limits assumed)
# [5] = target: T4, human GIPR (glucose-dependent …)
# Sequence of human glucagon receptor (GCGR) (P47871 26-477 limits assumed): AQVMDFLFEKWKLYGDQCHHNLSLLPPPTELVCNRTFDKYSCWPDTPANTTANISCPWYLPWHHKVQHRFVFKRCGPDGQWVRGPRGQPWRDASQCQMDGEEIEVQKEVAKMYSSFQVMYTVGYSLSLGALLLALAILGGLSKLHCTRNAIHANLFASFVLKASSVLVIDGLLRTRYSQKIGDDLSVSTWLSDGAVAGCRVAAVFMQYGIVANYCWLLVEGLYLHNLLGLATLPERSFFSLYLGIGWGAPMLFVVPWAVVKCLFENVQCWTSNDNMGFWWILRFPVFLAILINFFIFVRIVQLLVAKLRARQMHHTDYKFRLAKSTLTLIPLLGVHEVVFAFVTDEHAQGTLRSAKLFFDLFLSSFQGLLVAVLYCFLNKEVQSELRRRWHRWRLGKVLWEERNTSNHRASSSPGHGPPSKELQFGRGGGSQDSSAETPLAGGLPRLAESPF
Absolute hGIPR internalization (AUC) [1] [AUC],Relative hGIPR internalization (%) [1] [%],Absolute hGLP-1R internalization (AUC) (human SNAP-tagged GLP-1R),Relative hGLP-1R internalization (%) (human SNAP-tagged GLP-1R),Absolute hGLP-2R internalization (AUC) (human SNAP-tagged GLP-2R),Relative hGLP-2R internalization (%) (human SNAP-tagged GLP-2R),Efficacy GLP-2R [2],logEC50 GLP-2R [2],EC50 (nM) GLP-1R [3] [nM],Efficacy GLP-1R [3],logEC50 GLP-1R [3],"potency in Gs activation, measured as cAMP accumulation (-p Log EC50) [4]",EC50 (nM) GIPR [5] [nM],Efficacy GIPR [5],pEC50 GIPR [5],EC50 (nM) GLP-2R [2] [nM],Binder
21.7,59,0.96,1.14,12,24.8,89,8.7,3.98,102,8.4,< 7 -p Log EC50,0.071,119,10.2,,H[Aib]DGTFISDYSTILDALAARDFINWLIQTKITK([AEEA-AEEA-γGlu-C18 diacid])-OH [Compound 28]
7,19,78.8,93.7,38,78.2,93,9.3,0.04,116,10.5,< 7 -p Log EC50,1.12,93,9,0.6,HADGTFTSDYST[Aib]LDK([AEEA-AEEA-γGlu-C18 diacid])LAARDFINWLIQTKGKKNDWKHNITQ-OH [Compound 22]
10.2,28,94.7,113,36.3,74.6,104,9.2,0.05,122,10.3,< 7 -p Log EC50,0.398,104,9.4,0.6,HADGTFTSDYSTILDK([AEEA-AEEA-γGlu-C18 diacid])LAARDFINWLIQTKGKKNDWKHNITQ-OH [Compound 21]
